Legend:
[1] = target: full-length cynomolgus MUC1 on stably transfected cells (cynomolgus); experiment: FACS (iQue3) on HEK293-cynoMUC1 cells
[2] = target: cynomolgus MUC1 SEA domain protein (cynomolgus); experiment: SPR, antibody captured, cynoMUC1 SEA analyte

Chain of full-length cynomolgus MUC1 on stably transfected cells (cynomolgus) (chain, as listed by the source limits assumed, form in doubt): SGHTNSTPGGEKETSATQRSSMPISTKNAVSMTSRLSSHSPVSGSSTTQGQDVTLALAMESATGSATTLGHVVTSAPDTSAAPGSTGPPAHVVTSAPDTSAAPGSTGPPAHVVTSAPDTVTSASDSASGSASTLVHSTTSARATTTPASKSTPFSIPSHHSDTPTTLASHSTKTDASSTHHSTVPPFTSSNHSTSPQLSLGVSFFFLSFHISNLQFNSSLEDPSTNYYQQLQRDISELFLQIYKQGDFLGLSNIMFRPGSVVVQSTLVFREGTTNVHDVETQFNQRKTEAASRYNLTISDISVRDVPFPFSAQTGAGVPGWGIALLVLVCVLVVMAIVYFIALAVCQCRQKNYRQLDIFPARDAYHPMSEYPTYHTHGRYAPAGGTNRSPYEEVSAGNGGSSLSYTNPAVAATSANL

EC50 (read off the curve) [1]: 3 nM
Kd [2]: 6.67 nM
B1: huBG138P-Hz2 (antibody, V domains shown)
VH: QVQLVQSGAEVKKPGASVKVSCKASGYTFTTYTMHWVRQAPGQRLEWMGYINPGSDYTHYNQKFKDRVTITADTSASTAYMELSSLRSEDTAVYYCARQGNYAAYYFDYWGQGTLVTVSS
VL: DIQMTQSPSSLSASVGDRVTITCRASGNIHNFLVWYQQKPGKSPKLLIYNAKTLTSGVPSRFSGSGSGTQYTLTISSLQPEDVATYYCQNFWNVPFTFGQGTKLEIK

Source: US20250382384A1
